The values below come from patent publication US20230106715A1 (BIOSION, published 2023).

In test [1] the target is T1, cynomolgus monkey Siglec15-his protein (cynomolgus monkey).
T1 construct: In house made; also called Cynomolgus Siglec15-his; cynomolgus Siglec15
T1 chain: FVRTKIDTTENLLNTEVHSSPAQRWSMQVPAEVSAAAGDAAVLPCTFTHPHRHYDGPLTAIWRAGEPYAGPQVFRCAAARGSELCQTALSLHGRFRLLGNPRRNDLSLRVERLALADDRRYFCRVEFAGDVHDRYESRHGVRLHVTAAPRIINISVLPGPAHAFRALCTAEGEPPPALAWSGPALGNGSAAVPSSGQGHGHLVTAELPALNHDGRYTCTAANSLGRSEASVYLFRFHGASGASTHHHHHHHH
Description: indirect ELISA on coated cynomolgus Siglec15-his. Here is the method:
The anti-Siglec15 antibodies' cross-reactions to cynomolgus or mouse Siglec15 proteins were measured. Briefly, 96-well micro plates were coated with 100 μl of 2 μg/ml cynomolgus Siglec15-his protein (in house made with SEQ ID NO: 21), or 2 μg/ml mouse Siglec15-his protein (in house made with SEQ ID NO: 22) in carbonate/bicarbonate buffer (pH 9.6) for 2 hours at 37° C. ELISA plates were washed once with wash buffer (PBS+0.05% v/v Tween-20, PBST) and then blocked with 200 μl/well blocking buffer (5% w/v non-fatty milk in PBST) overnight at 4° C. Plates were washed 4 times and incubated with 100 μl serially diluted anti-Siglec15 antibodies of the disclosure or controls (starting at 66.7 nM, 5-fold serial dilution in PBST with 2.5% w/v non-fatty milk) for 40 minutes at 37° C. […] The reaction was stopped 4 minutes later at room temperature with 50 μl 1M H₂SO₄, and the absorbance of each well was read on a microplate reader using dual wavelength mode with 450 nm for TMB and 630 nm as the reference wavelength, then the OD (450-630) values were plotted against antibody concentration. Data was analyzed using Graphpad Prism software and EC₅₀ values were reported.

In test [2] the target is T2, recombinant human Siglec15-his protein (human, UniProt Q6ZMC9 20-263).
T2 construct: In house made; Biotin-labeled in the capture ELISA
T2 sequence: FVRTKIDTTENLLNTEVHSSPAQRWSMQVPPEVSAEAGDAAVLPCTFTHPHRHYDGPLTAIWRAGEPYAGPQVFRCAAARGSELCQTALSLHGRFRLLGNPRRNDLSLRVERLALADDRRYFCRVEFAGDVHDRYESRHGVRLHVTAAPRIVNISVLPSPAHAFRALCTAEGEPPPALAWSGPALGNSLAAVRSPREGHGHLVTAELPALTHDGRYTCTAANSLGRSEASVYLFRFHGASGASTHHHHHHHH
The test can be described thus: capture ELISA, captured antibody, biotin-labeled human Siglec15-his in solution. Here is the method:
Briefly, 96-well plates were coated with 100 μl of 2 μg/ml AffiniPure Goat Anti-Human IgG F(ab′)₂ fragment specific (Jackson Immuno Research, Cat #109-005-097) in PBS for 2 hours at 37° C. Plates were washed once with wash buffer (PBS+0.05% v/v Tween-20, PBST) and then blocked with 200 μl blocking buffer (5% w/v non-fatty milk in PBST) overnight at 4° C. Plates were washed 4 times and respectively incubated with 100 μl serially diluted anti-Siglec15 antibodies of the disclosure, the benchmark and hIgG (human immunoglobulin (pH4) for intravenous injection, Hualan Biological Engineering Inc.), 5-fold dilution in 2.5% w/v non-fatty milk in PBST starting at 66.7 nM, for 40 minutes at 37° C., and then washed 4 times again. […] The reaction was stopped in 4 minutes at room temperature with 50 μl/well 1M H₂SO₄, and the absorbance of each well was read on a microplate reader using dual wavelength mode with 450 nm for TMB and 630 nm as the reference wavelength, then the OD (450-630) values were plotted against antibody concentration. Data was analyzed using Graphpad Prism software and EC₅₀ values were reported.
On the technique in general: ELISA stands for enzyme-linked immunosorbent assay.

Test [3] deals with T3, human Siglec15-Fc protein (human).
T3 construct: In house made; also called recombinant human Siglec15 protein with human IgG1 Fc at the C-terminus
Description: competitive ELISA: biotin-labeled human Siglec15-Fc in solution, competitor coated benchmark. The procedure: (§1) The abilities of the anti-Siglec15 antibodies of the disclosure to block benchmark-human Siglec15 binding were measured in a competitive ELISA assay. Briefly, the benchmark was coated on 96-well micro plates at 2 μg/mL in PBS, 100 μl per well, and incubated for 2 hours at 37° C. Then plates were washed once with wash buffer, and blocked with 5% w/v non-fatty milk in PBST overnight at 4° C. The next day, the anti-Siglec15 antibodies of the disclosure or controls were diluted with biotin labeled human Siglec15-Fc protein (prepared in-house with SEQ ID NO: 19, 37 ng/ml in PBST with 2.5% w/v non-fatty milk), starting at 80 nM with a 4-fold serial dilution, and incubated at room temperature for 40 minutes. After plate washing 4 times, the antibody/Siglec15-Fc mixtures were added to benchmark coated plates, 100 μl per well. After incubation at 37° C. for 40 minutes, plates were washed 4 times again using wash buffer. Then the plates were added and incubated with 100 μl/well streptavidin conjugated HRP for 40 minutes at 37° C. […] Finally, TMB was added and the reaction was stopped using 1M H₂SO₄, and the absorbance of each well was read on a microplate reader using dual wavelength mode with 450 nm for TMB and 630 nm as the reference wavelength, then the OD (450-630) values were plotted against antibody concentration. Data was analyzed using Graphpad Prism software and IC₅₀ values were reported.

Test [4] has as its target T3, human Siglec15-Fc protein. The description is as above. The procedure:
The abilities of the anti-Siglec15 antibodies of the disclosure to block benchmark-human Siglec15 binding were measured in a competitive ELISA assay. Briefly, the benchmark was coated on 96-well micro plates at 2 μg/mL in PBS, 100 μl per well, and incubated for 2 hours at 37° C. Then plates were washed once with wash buffer, and blocked with 5% w/v non-fatty milk in PBST overnight at 4° C. The next day, the anti-Siglec15 antibodies of the disclosure or controls were diluted with biotin labeled human Siglec15-Fc protein (prepared in-house with SEQ ID NO: 19, 37 ng/ml in PBST with 2.5% w/v non-fatty milk), starting at 80 nM with a 4-fold serial dilution, and incubated at room temperature for 40 minutes. After plate washing 4 times, the antibody/Siglec15-Fc mixtures were added to benchmark coated plates, 100 μl per well. After incubation at 37° C. for 40 minutes, plates were washed 4 times again using wash buffer. Then the plates were added and incubated with 100 μl/well streptavidin conjugated HRP for 40 minutes at 37° C. Plates were washed again using wash buffer. Finally, TMB was added and the reaction was stopped using 1M H₂SO₄, and the absorbance of each well was read on a microplate reader using dual wavelength mode with 450 nm for TMB and 630 nm as the reference wavelength, then the OD (450-630) values were plotted against antibody concentration. Data was analyzed using Graphpad Prism software and IC₅₀ values were reported.
The mouse anti-Siglec15 antibodies of the disclosure were also tested in ligand blocking ELISA and benchmark blocking ELISA following the protocols described above.
The source holds these as a separate data set.
Target sequence in this assay (chain, as listed by the source limits assumed): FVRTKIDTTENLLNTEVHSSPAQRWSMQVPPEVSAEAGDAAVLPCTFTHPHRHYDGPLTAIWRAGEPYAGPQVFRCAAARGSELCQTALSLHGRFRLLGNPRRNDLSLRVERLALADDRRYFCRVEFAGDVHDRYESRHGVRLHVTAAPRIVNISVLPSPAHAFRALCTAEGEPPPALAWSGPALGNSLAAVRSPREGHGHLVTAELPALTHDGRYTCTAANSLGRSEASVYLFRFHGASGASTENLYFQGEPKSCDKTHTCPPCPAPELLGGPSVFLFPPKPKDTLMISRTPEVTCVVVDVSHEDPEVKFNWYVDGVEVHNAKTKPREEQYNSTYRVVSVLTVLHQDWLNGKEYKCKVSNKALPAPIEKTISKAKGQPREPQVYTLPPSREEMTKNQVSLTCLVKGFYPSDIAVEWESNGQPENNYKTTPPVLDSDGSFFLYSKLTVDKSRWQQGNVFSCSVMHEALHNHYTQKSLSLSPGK

Test [5] deals with T3, human Siglec15-Fc protein. The test can be described thus: competitive ELISA: biotin-labeled human Siglec15-Fc in solution, competitor coated benchmark; falling curve, table row is labelled EC50. The procedure:
as §1
Target sequence in this assay (chain, as listed by the source limits assumed): as above

B1: anti-Siglec15 benchmark (ch5G12) (antibody, human IgG1, kappa, V domains shown)
VH: QVQLQQPGAELVKPGASVKMSCKASGYTFTSYWITWVIQRPGQGLEWIGDIYCGSDTMHYNEKFKNKATLTVDTSSSTAYMQLSSLTSEDSAVYYCARWWDYGSSYDYFDYWGQGTTLTVSS
VL: DIKMTQSPSSMYASLGERVTITCKASQDINSYLSWFQQKPGKSPKTLIYRANRLVDGVPSRFSGSGSGQDYSLTISSLEYEDMGIYYCLQYDEFPYTFGGGTKLEIKR
notes: ch5G12 (US 20190202912A1); also called BM; Siglec15-ch5G9
What is called EC50 is the concentration that produces a half-maximal response. What is called IC50 is the concentration that inhibits the measured activity by half. Regarding B1, the EC50 in test [1] was 0.461 nM; in test [2] it was 2.35 nM. Moreover, the IC50 is 0.253 nM in test [3], 0.447 nM in test [4] and 0.486 nM in test [5].

B2: A2A5C7E8 (antibody, V domains shown)
VH: EVQLVQSGAEVKKPGESLRISCKGSGYSFTTYWISWVRQMPGKGLEWMGLIDPSDSYTNYSPSFQGHVTISTDKSISTAYLQWSSLKASDTAMYYCARGGYYGSEEDYWGQGTLVTVSS
VL: EIVLTQSPGTLSLSPGERATLSCRASQSVSSSRLAWFQQKSGQAPRLLIFDASSRATGIPDRFSGSGSGTDFTLTISRLEPEDFAVYYCQQYGSSPRTFGQGTKVEFK
notes: Fully human antibody from transgenic mouse hybridoma; also called A2A5C7E8-1
In turn, B2 gave a half-inhibitory concentration (IC50) in test [3] of 0.0836 nM.

B3: B2D7H7A3C1 (antibody, V domains shown)
VH: QVQLQQSGAELVRPGTSVQMSCKAAGYTFTNYWIGWVKQRPGHGLEWVGDIHPGINYTNNNEKFRGKATLTADTSSNTAYMQLRGLTSDDSAIYYCARVDYDYDGSYIMDYWGQGTSVTVSS
VL: QIVLSQSPALLSASPGEKVTMTCRASSSVSYMYWYQQKPGSSPKPWIYATSNLTSGVPARFSGSGSGTSYSLTISRVEAEDAATYFCQQWNSKPWTFGGGSKLEIR
notes: Mouse monoclonal antibody from hybridoma; also called mouse B2D7H7A3C1
B3 registered a 50% inhibitory concentration (IC50) in test [4] of 0.081 nM.

B4: B2H2H1H7 (antibody, V domains shown)
VH: QVQLQQSGAELVRPGTSVQMSCKAAGYTFTNYWIGWVKQRPGHGLEWVGDIHPGINYTNNNEKFRGKATLTADTSSSTAYMQLRGLTSDDSAIYYCARVDYDYDGSYIMDYWGQGTSVTVSS
VL: QIILSQSPALLSASPGEKVTMTCRASSSVSYMYWYQQKPGSSPKPWIYATSNLTSGVPARFSGSGSGTSYSLTISRVEAEDAATYFCQQWNSKPWTFGGGSRLEIR
notes: Mouse monoclonal antibody from hybridoma; also called mouse B2H2H1H7; B2H2H1A7
B4 showed an IC50 in test [4] of 0.0642 nM.

B5: B2G12H3E8 (antibody, V domains shown)
VH: QVQLKQSGAELVRPGTSVQMSCKAVGYTFTNYWIGWVKQRPGHGLEWVGDIHPGINYTNNNEKFRGKATLTADTSSSTAYMQLRGLTSDDSAIYYCARVDYDYDGSYIMDYWGQGTSVTVSS
VL: QIVLSQSPALLSASPGEKVTMTCRASSSVSYMYWYQQKPGSSPKPWIYATSNLTSGVPARFSGSGSGTSYSLTISRVEAEDAATYFCQQWNSKPWTFGGGSKLEIR
notes: Mouse monoclonal antibody from hybridoma; also called mouse B2G12H3E8
On to B5, for which the half-inhibitory concentration (IC50) in test [4] is 0.063 nM.
